Results on four molecules are retold here after article PMC12386367, “Importin α3 Is Tolerant to Nuclear Localization Signal Chirality” (International Journal of Molecular Sciences, 2025).

Assay [1] has as its target L-NLS-NUPR1phospho NLS (Homo sapiens) (UniProt O60356). The conditions noted are these: cited from earlier work.
In assay [2] the target is L-NLS-NUPR1 NLS (Homo sapiens) (UniProt O60356). To be noted: cited from earlier work.
For assay [3], the target named is L-NLS-NUPR1L NLS (Homo sapiens) (UniProt A6NF83). The assay is described as follows: ITC. The conditions noted are these: cited from earlier work.
Assay [4] deals with L-NLS-PADI NLS (Homo sapiens) (UniProt Q9UM07). The assay is described as follows: ITC. To be noted: cited from earlier work.
Assay [5] has the same target. Kind of assay: fluorescence. The conditions noted are these: cited from earlier work.
Assay [6] concerns the target L-NLS-NUPR1 (Homo sapiens) (UniProt O60356). The assay is described as follows: ITC. The conditions noted are these: cited from earlier work.
The target in assay [7] is L-NLS-NUPR1L (Homo sapiens) (UniProt A6NF83). Kind of assay: ITC. The conditions noted are these: cited from earlier work.
The target of assay [8] is L-NLS-NUPR1phospho (Homo sapiens) (UniProt O60356). Kind of assay: ITC. The conditions noted are these: cited from earlier work.
In assay [9] the target is L-NLS-PADI (NLS2-PADI4) (Homo sapiens) (UniProt Q9UM07). Kind of assay: ITC. To be noted: cited from earlier work.
Assay [10] has the same target. The assay is described as follows: fluorescence. The conditions noted are these: cited from earlier work.
Assay [11] addresses T1, Human importin α3 isoform (residues 1–521) (human, UniProt O00629 1-521).
T1 construct: human importin α3 (Impα3, KPNA4), residues 1-521, intact protein with the N-terminal IBB domain; The materials list Ni2+-resin, ampicillin and IPTG, so expression in E. coli is surmised; also called Impα3; KPNA4
T1 sequence (looked up): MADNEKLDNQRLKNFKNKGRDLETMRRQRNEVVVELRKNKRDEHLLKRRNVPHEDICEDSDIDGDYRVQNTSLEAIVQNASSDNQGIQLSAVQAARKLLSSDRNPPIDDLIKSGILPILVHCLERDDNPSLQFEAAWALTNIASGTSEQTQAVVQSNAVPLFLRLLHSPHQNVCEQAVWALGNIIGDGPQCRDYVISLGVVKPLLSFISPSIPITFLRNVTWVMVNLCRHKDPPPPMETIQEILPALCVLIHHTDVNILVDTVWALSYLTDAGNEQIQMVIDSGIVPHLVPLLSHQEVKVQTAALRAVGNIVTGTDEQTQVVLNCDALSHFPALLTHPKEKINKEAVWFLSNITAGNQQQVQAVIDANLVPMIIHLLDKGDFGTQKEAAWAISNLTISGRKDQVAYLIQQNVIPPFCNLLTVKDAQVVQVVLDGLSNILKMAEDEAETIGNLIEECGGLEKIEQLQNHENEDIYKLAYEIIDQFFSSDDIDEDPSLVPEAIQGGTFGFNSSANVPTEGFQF
The assay is described as follows: other fluorescence titration; intrinsic fluorescence, excitation at 280 or 295 nm; Impα3 or ∆Impα3 fixed at 3 μM (protomer units), peptide 0–35 μM; 50 mM Tris pH 8.0; 25 °C. The conditions noted are these: both partners purified.

Assay [12] deals with T2, IBB-depleted species of Impα3 (residues 64–521 of the intact protein) (human, UniProt O00629 64-521).
T2 construct: PDB 5XZX was used only as the model of ∆Impα3 for docking; its limits may differ from 64-521; also called ΔImpα3; truncated importin species
T2 sequence (looked up): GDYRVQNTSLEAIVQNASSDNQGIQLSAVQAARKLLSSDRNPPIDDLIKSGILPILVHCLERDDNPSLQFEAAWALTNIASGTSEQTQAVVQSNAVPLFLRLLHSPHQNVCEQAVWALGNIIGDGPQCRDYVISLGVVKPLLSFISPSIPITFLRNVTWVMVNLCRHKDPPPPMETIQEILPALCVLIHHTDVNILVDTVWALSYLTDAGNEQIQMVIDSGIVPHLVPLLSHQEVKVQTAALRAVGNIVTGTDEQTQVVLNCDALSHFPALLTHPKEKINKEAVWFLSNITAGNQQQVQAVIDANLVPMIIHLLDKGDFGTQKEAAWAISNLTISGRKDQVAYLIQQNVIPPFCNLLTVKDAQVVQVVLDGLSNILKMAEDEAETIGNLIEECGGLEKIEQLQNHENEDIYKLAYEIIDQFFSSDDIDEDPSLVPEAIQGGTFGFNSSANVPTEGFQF
The assay is described as above. The conditions noted are these: both partners purified.

Assay [13] addresses T1, Human importin α3 isoform (residues …). The assay is described as follows: BLI; His-tagged Impα3 or ∆Impα3 immobilised on His-tag biosensors at 0.25 μM; peptides 1 to 10 μM; BLItz system, manufacturer's 10x kinetics buffer; 25 °C; kon and koff from pseudo-first-order plots; apparent Kd = koff/kon, two-state process assumed. To be noted: both partners purified.
The target of assay [14] is T2, IBB-depleted species of Impα3 (residues …). The description is as above. The conditions noted are these: both partners purified.
Assay [15] concerns the target T1, Human importin α3 isoform (residues …). Kind of assay: ITC; importin species (15 µM in protomer units) in the cell, D-NLS peptide (150–200 µM) in the syringe; Tris buffer 50 mM, pH 8.0; 25 °C; single set of binding sites. To be noted: both partners purified. For orientation: In ITC the heat of successive injections is recorded.
The target of assay [16] is T2, IBB-depleted species of Impα3 (residues …). The description is as above. To be noted: both partners purified.
Assay [17] addresses T1, Human importin α3 isoform (residues …). The description is as above. To be noted: both partners purified. This is another data set of the same source.
Assay [18] concerns the target T2, IBB-depleted species of Impα3 (residues …). The assay is described as above. To be noted: both partners purified. The source holds these as a separate data set.

Non-standard residues stand in square brackets, D forms with d.

Chain of L-NLS-PADI (NLS2-PADI4) (Homo sapiens) (Q9UM07 498-526): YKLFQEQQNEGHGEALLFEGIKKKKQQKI
Chain of L-NLS-NUPR1 (Homo sapiens) (O60356 54-74): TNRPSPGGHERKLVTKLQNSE
Chain of L-NLS-NUPR1L (Homo sapiens) (A6NF83 51-74): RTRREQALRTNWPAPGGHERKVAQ
Chain of L-NLS-NUPR1L NLS (Homo sapiens) (A6NF83 60-80): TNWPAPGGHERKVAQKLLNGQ

With “∆Importin α3 IBB-deleted (from UniProt O00629)”, the Kd was 29 µM in assay [1]; 0.95 µM in assay [2]; 5.5 µM in assay [3]; 4.37 µM in [4]; 4 µM in assay [5].

∆Impα3 64-521 (from UniProt O00629): the Kd in assay [6] is 0.95 µM; in assay [7], 5.5 µM; in [8] it was 29 µM; in [9], 4.37 µM; in [10], 4 µM.

B1: D-enantiomeric, isolated, non-canonical NLS of PADI4 (peptide)
peptide: Ac-[dK][dL][dF][dQ][dE][dQ][dQ][dN][dE]G[dH]G[dE][dA][dL][dL][dF][dE]G[dI][dK][dK][dK][dK][dQ][dQ][dK][dI]-NH2
SMILES: CC[C@@H](C)[C@@H](NC(=O)[C@@H](CCCCN)NC(=O)[C@@H](CCC(N)=O)NC(=O)[C@@H](CCC(N)=O)NC(=O)[C@@H](CCCCN)NC(=O)[C@@H](CCCCN)NC(=O)[C@@H](CCCCN)NC(=O)[C@@H](CCCCN)NC(=O)[C@H](NC(=O)CNC(=O)[C@@H](CCC(=O)O)NC(=O)[C@@H](Cc1ccccc1)NC(=O)[C@@H](CC(C)C)NC(=O)[C@@H](CC(C)C)NC(=O)[C@@H](C)NC(=O)[C@@H](CCC(=O)O)NC(=O)CNC(=O)[C@@H](Cc1c[nH]cn1)NC(=O)CNC(=O)[C@@H](CCC(=O)O)NC(=O)[C@@H](CC(N)=O)NC(=O)[C@@H](CCC(N)=O)NC(=O)[C@@H](CCC(N)=O)NC(=O)[C@@H](CCC(=O)O)NC(=O)[C@@H](CCC(N)=O)NC(=O)[C@@H](Cc1ccccc1)NC(=O)[C@@H](CC(C)C)NC(=O)[C@@H](CCCCN)NC(C)=O)[C@H](C)CC)C(N)=O
notes: second predicted (non-canonical) NLS region of PADI4 (protein arginine deiminase 4), residues 499-526 of the intact protein, made of D-amino acids; Mirror-image (all-D) peptide; also called D-NLS-PADI; D-form of NLS2-PADI4; source: synthetic peptide (Genscript, purity higher than 95%)
Regarding B1, the Kd in [11] was 12 ± 5 µM; in [12] it was 16 ± 11 µM; in [13], 15 µM; in assay [14] it was 6 µM. The values for the off-rate (koff) in assay [13] and in assay [14] were 0.6 s⁻¹ and 0.37 s⁻¹, respectively. Moreover, the kon in assay [13] came out at 45000 M⁻¹ s⁻¹; in assay [14] it was 60000 M⁻¹ s⁻¹.

B2: D-enantiomeric, isolated NLS region of NUPR1L (residues 51–74 of the intact protein) (peptide)
peptide: Ac-[dR][dT][dR][dR][dE][dQ][dA][dL][dR][dT][dN][dW][dP][dA][dP]GG[dH][dE][dR][dK][dV][dA][dQ]-NH2
SMILES: CC(=O)N[C@H](CCCNC(=N)N)C(=O)N[C@@H](C(=O)N[C@H](CCCNC(=N)N)C(=O)N[C@H](CCCNC(=N)N)C(=O)N[C@H](CCC(=O)O)C(=O)N[C@H](CCC(N)=O)C(=O)N[C@H](C)C(=O)N[C@H](CC(C)C)C(=O)N[C@H](CCCNC(=N)N)C(=O)N[C@@H](C(=O)N[C@H](CC(N)=O)C(=O)N[C@H](Cc1c[nH]c2ccccc12)C(=O)N1CCC[C@@H]1C(=O)N[C@H](C)C(=O)N1CCC[C@@H]1C(=O)NCC(=O)NCC(=O)N[C@H](Cc1c[nH]cn1)C(=O)N[C@H](CCC(=O)O)C(=O)N[C@H](CCCNC(=N)N)C(=O)N[C@H](CCCCN)C(=O)N[C@@H](C(=O)N[C@H](C)C(=O)N[C@H](CCC(N)=O)C(N)=O)C(C)C)[C@H](C)O)[C@H](C)O
notes: NLS region of NUPR1L (paralogue of NUPR1), residues 51-74 of the intact protein, made of D-amino acids; also called D-NLS-NUPR1L; source: synthetic peptide (Genscript, purity higher than 95%)
Turning to B2, the dH in [15] was -2.5 ± 0.2 kcal/mol; in [16], -4.5 ± 0.7 kcal/mol. Further, the Kd is 2.7 ± 0.6 µM in assay [17], 5 ± 1 µM in [18], 1 µM in assay [13] and 0.7 µM in assay [14]. The results for the off-rate constant (koff) in assay [13] and in [14] were 0.069 s⁻¹ and 0.038 s⁻¹, respectively. Besides, the on-rate (kon) worked out at 68000 M⁻¹ s⁻¹ in assay [13] and 51200 M⁻¹ s⁻¹ in [14].

A word on the koff: it is the rate constant with which the complex falls apart. A word on the kon: it is the second-order rate constant of association.
